Molecular target: the molecule itself
Test: SAXS; Sav1866-SMALPs from the 12 ml SEC fraction, undiluted sample, 20 mM Tris pH 8, 150 mM NaCl; DAMMIF models with P1 and P2 symmetry fitted with the crystal structure 2HYD

B1: Staphylococcus aureus ABC transporter Sav1866 in styrene-maleic acid lipid particles (natural protein)
chain: MIKRYLQFVKPYKYRIFATIIVGIIKFGIPMLIPLLIKYAIDGVINNHALTTDEKVHHLTIAIGIALFIFVIVRPPIEFIRQYLAQWTSNKILYDIRKKLYNHLQALSARFYANNQVGQVISRVINDVEQTKDFILTGLMNIWLDCITIIIALSIMFFLDVKLTLAALFIFPFYILTVYVFFGRLRKLTRERSQALAEVQGFLHERVQGISVVKSFAIEDNEAKNFDKKNTNFLTRALKHTRWNAYSFAAINTVTDIGPIIVIGVGAYLAISGSITVGTLAAFVGYLELLFGPLRRLVASFTTLTQSFASMDRVFQLIDEDYDIKNGVGAQPIEIKQGRIDIDHVSFQYNDNEAPILKDINLSIEKGETVAFVGMSGGGKSTLINLIPRFYDVTSGQILIDGHNIKDFLTGSLRNQIGLVQQDNILFSDTVKENILLGRPTATDEEVVEAAKMANAHDFIMNLPQGYDTEVGERGVKLSGGQKQRLSIARIFLNNPPILILDEATSALDLESESIIQEALDVLSKDRTTLIVAHRLSTITHADKIVVIENGHIVETGTHRELIAKQGAYEHLYSIQNL
notes: Sav1866, ABC transporter (half-transporter, homodimer) of Staphylococcus aureus; expressed from pet-19b:sav1866; M from chemical composition 64 863 Da; the undigested band at 65 kDa is called full-length Sav1866; Embedded in a SMALP nanoparticle with E. coli lipids; The DNA construct was a gift; its exact limits and linker are not described; also called Sav1866-SMALPs; Sav1866-10His; source: E. …
For B1, which “stoichiometry N” value is on record?
Its value is 2.

— publication PMC8883494, “Conformational trapping of an ABC transporter in polymer lipid nanoparticles” (Biochemical Journal, 2021)
